# Assay results: patent US7090834B1, “Vascular endothelial cell growth factor variants and uses thereof” (Genentech, Inc., priority 1999, dated 2006)
# Changes are numbered by the printed parent chain. Numbers in names are those of the source.
# B1: Flt-sel (I43A/I46A/Q79A/I83A, 1-109 short form) (ligand, human, UniProt P15692-4 27-135, looked up)
# chain: APMAEGGGQNHHEVVKFMDVYQRSYCHPIETLVDIFQEYPDEAEYAFKPSCVPLMRCGGCCNDEGLECVPTEESNITMAIMRAKPHQGQHIGEMSFLQHNKCECRPKKD
# notes: also called Flt-1-sel; Flt-1 selective variant
# B2: Flt-1 selective VEGF variant: Flt-1 selective variant comprising a full length 165 sequence with I43A/I46A/Q79A/I83A (protein)
# chain: B1 chain
# B3: LK-VRB-1s* (ligand, human, UniProt P15692-4 27-135, looked up)
# chain: B1 chain with M18E, Y21L, Q22R, Y25S, A43I, A46I, A79Q, A83I
# Columns and labels:
# [1] = target: T1, KDR receptor (soluble radio-immuno receptor-binding assay) (UniProt P35968 20-764, limits assumed); experiment: soluble radio-immuno receptor-binding assay (RIA)
# T1 construct: the receptor construct is not described
# T1 sequence (P35968 20-764 limits assumed): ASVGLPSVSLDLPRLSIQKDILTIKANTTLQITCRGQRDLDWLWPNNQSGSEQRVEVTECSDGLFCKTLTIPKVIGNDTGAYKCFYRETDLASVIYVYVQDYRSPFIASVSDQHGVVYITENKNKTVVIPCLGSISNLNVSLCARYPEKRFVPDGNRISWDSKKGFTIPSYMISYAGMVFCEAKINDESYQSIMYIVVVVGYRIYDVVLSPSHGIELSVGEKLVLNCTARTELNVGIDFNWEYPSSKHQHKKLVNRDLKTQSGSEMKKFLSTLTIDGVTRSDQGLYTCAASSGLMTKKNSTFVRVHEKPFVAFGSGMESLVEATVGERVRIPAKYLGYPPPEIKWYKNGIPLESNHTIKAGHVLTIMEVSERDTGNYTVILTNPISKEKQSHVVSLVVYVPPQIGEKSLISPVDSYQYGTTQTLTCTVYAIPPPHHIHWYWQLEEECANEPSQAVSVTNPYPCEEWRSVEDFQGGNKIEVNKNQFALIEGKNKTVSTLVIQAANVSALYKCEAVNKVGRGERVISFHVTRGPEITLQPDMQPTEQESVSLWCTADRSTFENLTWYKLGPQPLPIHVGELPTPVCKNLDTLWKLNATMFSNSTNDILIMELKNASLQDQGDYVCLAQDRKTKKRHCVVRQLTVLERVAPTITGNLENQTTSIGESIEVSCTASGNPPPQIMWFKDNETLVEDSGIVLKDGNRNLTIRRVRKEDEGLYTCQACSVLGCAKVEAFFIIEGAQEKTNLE
# Protocol: For example, quantitative binding measurements were carried out using a soluble radio-immuno receptor-binding assay (RIA), as described in Example 6 above.
# [2] = system: ERK1 and ERK2 in HUVEC cells; experiment: Activation of MAP kinases, ERK1/ERK2 phosphorylation Western blot; assay type: cell-based, human; settings: 50 ng/ml or 10 ng/ml, 5 minutes, FIG. 12A
# Protocol: Passage 4–7 HUVEC cells (Cell Systems, Kirkland, Wash.) were grown in Cell System's complete medium (AZ0-500) with 10% fetal calf serum and growth factors on gelatin-coated dishes and made quiescent by 14 hour starvation in 0.2% serum. […] The HUVEC cells were then lysed in 0.5–1 ml RIPA buffer containing 0.1 mM sodium orthovanadate, 5 mM para-nitrophenylphosphate, 10 mM sodium fluoride, 0.5 micromolar okadaic acid and a protease inhibitor cocktail (Roche MB 1836145). Western blot analysis was then conducted, probing for phosphorylated ERK1 or ERK2 using anti-phospho ERK antiserum (Promega).
# [3] = system: PLC-gamma in HUVEC cells; experiment: PLC-gamma tyrosine phosphorylation after immunoprecipitation; assay type: cell-based, human; settings: 20 ng/ml, 5 minutes, FIG. 13A
# Protocol: In order to determine which VEGF receptor(s) are involved in PLC-gamma activation in primary endothelial cells, HUVEC cells were treated with native VEGF or VEGF receptor-selective variants and PLC-gamma phosphorylation was assessed after immunoprecipitation.
# Passage 4–7 HUVEC cells (Cell Systems, Kirkland, Wash.) were grown in Cell System's complete medium (AZ0-500) with 10% fetal calf serum and growth factors on gelatin-coated dishes and made quiescent by 14 hour starvation in 0.2% serum. […] The cells were then lysed in 0.5–1 ml RIPA buffer containing 0.1 mM sodium orthovanadate, 5 mM para-nitrophenylphosphate, 10 mM sodium fluoride, 0.5 micromolar okadaic acid and a protease inhibitor cocktail (Roche MB 1836145). PLC-gamma was then immunoprecipitated from whole cell lysates using monoclonal antibodies (Upstate Biotechnology) and analyzed for tyrosine phosphorylation (FIG. 13A) or lysates were immunoprecipitated with monoclonal antibodies against p85 PI 3′-kinase (purchased from Transduction Labs (P13020) and Neomarkers (MS424-P)) and tested for phosphotyrosine using phosphotyrosine antibodies PY20 or E120H (Transduction Labs) (FIG. 13B). Immunoprecipitation was conducted as follows. Protein A/G beads (Pierce) were blocked for nonspecific protein binding in 50 mM HEPES pH 7.2, 0.1% TX-100, 150 mM NaCl and 1 mg/ml ovalbumin for 30 minutes. Antibodies were precoupled in the same buffer for 1 hour at 4° C. with head over end rotation and beads were washed 3 times in lysis buffer. Beads were added to the lysates and rotated overnight. Beads were washed sequentially in 50 mM Tris pH 7.6, 150 mM NaCl, 1% TX-100, 1 mM CaCl2; 50 mM Tris pH 7.6, 500 mM NaCl, 0.1% TX-100, 1 mM CaCl2 and 50 mM Tris pH 7.6, 150 mM NaCl, 0.05% TX-100, 1 mM CaCl2. Beads were then resuspended in 2× sample buffer and boiled. Supernatants were applied directly to 4–12% Tris-Glycine gradient gels (Novex).
# [4] = system: HUVEC cells; experiment: HUVEC migration, modified Boyden chamber assay; assay type: cell-based, human; settings: 18 hour assay, FIG. 14A
# Protocol: One of the central aspects of VEGF action on endothelial cells is its ability to act as a chemoattractant and stimulate the migration of endothelial cells. HUVEC cell migration was analyzed in a modified Boyden chamber assay as follows.
# Falcon 8.0 micron filter inserts (Falcon 3097) were coated with type 1 collagen (VITROGEN, COHESION). HUVEC (obtained from Cell Systems, <passage 8) were grown in Cell Systems complete media (4ZO-500) with 10% FCS. Cells were trypsinized and transferred to EBM (Endothelial basal media, Clonetics) with 0.1% BSA for the assay. Cells were plated at 5×10^4 per upper chamber. […] The assay was routinely an 18 hour assay at 37° C. For the LY294002 inhibitor experiments, cells were allowed to adhere for 30 minutes prior to addition of the inhibitor. 20 minutes after inhibitor addition, VEGF was added to the bottom well and the assay was allowed to proceed for only 4 hours to avoid the occurrence of apoptosis associated with the treatment of these primary cells with LY294002 (purchased from Biomol).
# Cells were removed from the upper side of the membrane by scraping with a polyurethane swab and then the remaining cells on the bottom side of the membrane were fixed with methanol. Cells were stained with Yo-Pro Iodide nuclear stain (Molecular Probes) and counted under low power fluorescence using an Image-Pro cell recognition program.
# [5] = system: corneal angiogenesis; experiment: Corneal pocket angiogenesis assay; assay type: in vivo, Sprague-Dawley rats; settings: rat, pellet with 200 ng growth factor, day 6, FIGS. 15A and 15B
# Protocol: Assays were performed as described by Polyerini et al., Methods Enzymol., 198:440–450 (1991) with the following modifications. Sprague-Dawley rats were anesthetized using a gas (isoflurane)/injectable ketamine (80 mg/kg)/xylazine (15 mg/kg) combination. The eyes were gently proptosed and secured in place using nontraumatic forceps. With a #15 blade, a 1.5 mm incision was made slightly below the center of the cornea. Using a micro spatula (ST80017, ASSI), the incision was carefully blunt-dissected through the stroma toward the outer canthus of the eye. […] After surgery, the eyes were coated with gentamicin ointment. At day 6, the animals were injected with high molecular weight FITC-dextran and euthanized to allow for visualization of the vasculature. Corneal whole mounts were made of the enucleated eyes and measurements of the neovascular area completed using computer-assisted image analysis (Image-Pro Plus).
# [6] = target: gD-KDR receptor on CHO cells (UniProt P35968 20-1356); experiment: cell-based or functional assay
# [7] = target: KDR receptor on HUVEC cells (human, UniProt P35968 20-1356); experiment: cell-based or functional assay
# KDR receptor on HUVEC cells, sequence (P35968 20-1356): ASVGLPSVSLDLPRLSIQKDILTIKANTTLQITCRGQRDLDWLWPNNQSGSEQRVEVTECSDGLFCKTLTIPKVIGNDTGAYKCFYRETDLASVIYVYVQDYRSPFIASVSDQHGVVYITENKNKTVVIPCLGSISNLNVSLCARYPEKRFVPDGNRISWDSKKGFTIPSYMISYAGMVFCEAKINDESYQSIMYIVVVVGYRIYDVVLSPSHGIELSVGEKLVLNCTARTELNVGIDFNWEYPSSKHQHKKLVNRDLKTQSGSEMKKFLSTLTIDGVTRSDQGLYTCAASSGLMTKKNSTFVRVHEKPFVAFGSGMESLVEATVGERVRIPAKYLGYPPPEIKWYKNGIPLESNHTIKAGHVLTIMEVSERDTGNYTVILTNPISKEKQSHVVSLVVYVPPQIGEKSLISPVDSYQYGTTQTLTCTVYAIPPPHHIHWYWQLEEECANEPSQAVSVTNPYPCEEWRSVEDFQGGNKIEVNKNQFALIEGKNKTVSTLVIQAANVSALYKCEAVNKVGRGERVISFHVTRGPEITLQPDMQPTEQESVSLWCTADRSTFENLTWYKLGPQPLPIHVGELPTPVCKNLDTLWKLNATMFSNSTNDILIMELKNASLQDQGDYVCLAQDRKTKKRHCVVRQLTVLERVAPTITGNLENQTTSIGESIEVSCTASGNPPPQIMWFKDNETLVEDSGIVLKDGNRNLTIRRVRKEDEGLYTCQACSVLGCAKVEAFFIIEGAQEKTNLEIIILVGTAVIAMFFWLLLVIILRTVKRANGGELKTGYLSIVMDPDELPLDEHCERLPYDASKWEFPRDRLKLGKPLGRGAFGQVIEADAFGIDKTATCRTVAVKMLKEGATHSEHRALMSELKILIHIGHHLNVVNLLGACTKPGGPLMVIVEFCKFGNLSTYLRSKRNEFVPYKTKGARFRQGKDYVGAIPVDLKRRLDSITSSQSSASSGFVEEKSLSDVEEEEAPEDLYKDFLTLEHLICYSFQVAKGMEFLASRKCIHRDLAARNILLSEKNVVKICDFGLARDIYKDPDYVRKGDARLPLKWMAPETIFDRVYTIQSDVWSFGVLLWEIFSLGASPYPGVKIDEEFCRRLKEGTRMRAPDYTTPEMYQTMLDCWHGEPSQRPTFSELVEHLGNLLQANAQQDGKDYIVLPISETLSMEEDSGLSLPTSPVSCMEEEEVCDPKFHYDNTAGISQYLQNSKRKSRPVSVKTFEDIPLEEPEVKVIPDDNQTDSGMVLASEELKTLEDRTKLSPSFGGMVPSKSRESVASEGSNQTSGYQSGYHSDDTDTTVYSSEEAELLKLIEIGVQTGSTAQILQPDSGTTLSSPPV
# [8] = target: KDR receptor (Homo sapiens, UniProt P35968); experiment: KDR receptor binding ELISA (inhibition of biotinylated native VEGF (8–109) binding); settings: second figure of the cell, variant midpoint concentration divided by that of native VEGF
# KDR receptor, sequence (P35968 20-327 limits assumed): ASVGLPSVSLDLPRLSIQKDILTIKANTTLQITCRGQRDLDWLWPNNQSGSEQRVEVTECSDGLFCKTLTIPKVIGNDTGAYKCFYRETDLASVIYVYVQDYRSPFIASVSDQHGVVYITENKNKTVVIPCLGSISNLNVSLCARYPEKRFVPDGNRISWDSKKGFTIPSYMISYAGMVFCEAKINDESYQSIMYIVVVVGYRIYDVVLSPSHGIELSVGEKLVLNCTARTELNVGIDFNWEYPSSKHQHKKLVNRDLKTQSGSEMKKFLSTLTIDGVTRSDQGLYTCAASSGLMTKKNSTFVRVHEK
# Protocol: (§1) Receptor binding assays were performed in 96-well immunoplates (Maxisorp, Nunc-Immunoplate, Nalge Nunc International, Rochester, N.Y.). Each well was coated with 100 μl of a solution containing 8 μg/ml of a monoclonal antibody to KDR known as MAKD5 (Genentech, South San Francisco, Calif.) in 50 mM carbonate buffer at pH 9.6 and incubated at 4° C. overnight. The supernatant was discarded, the wells were washed three times in washing buffer (0.05% Tween 20 in PBS), and the plate was blocked (150 μl per well) with block buffer (0.5% BSA, 0.01% thimerosal in PBS) at room temperature for one hour. The supernatant was discarded, and the wells were washed.
# (§2) Aliquots of this mixture (100 μl) were added to the precoated microtiter wells and the plate was incubated for 1 hour at room temperature. […] The wells were then incubated with 3, 3′, 5,5′-tetramethyl benzidine (0.2 gram/liter; Kirkegaard & Perry Laboratories, Gaithersburg, Md.) for about 10 minutes at room temperature. Absorbance was read at 450 nm on a Vmax plate reader (Molecular Devices, Menlo Park, Calif.).
# (§3) Titration curves were fit with a four-parameter nonlinear regression curve-fitting program (KaleidaGraph, Synergy Software, Reading, Pa.).
# [9] = system: Flt-1 receptor; experiment: RIA assay, binding to FLT-1 receptor; settings: relative to native VEGF 165 = 1
# Flt-1 receptor, sequence (P17948 27-331 limits assumed): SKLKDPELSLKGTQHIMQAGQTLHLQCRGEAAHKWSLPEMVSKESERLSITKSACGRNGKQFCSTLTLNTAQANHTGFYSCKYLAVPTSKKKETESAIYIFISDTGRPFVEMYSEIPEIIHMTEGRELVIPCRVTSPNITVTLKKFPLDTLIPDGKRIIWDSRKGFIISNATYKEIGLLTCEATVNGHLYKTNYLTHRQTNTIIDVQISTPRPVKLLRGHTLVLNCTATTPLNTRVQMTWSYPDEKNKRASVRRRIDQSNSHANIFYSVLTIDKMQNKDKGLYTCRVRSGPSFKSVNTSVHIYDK
# Protocol: Various assays were conducted to examine the properties and biological activities of the I43A/I46A/Q79A/I83A Flt-sel variant. For example, quantitative binding measurements were carried out using a soluble radio-immuno receptor-binding assay (RIA), as described in Example 6 above.
# [10] = target: T1, KDR receptor (soluble radio-immuno …); experiment: RIA (essentially as Muller et al. 1997)
# [11] = target: T2, FLT-1 receptor (soluble radio-immuno receptor-binding assay) (UniProt P17948 27-758, limits assumed); experiment: RIA (essentially as Muller et al. 1997)
# T2 construct: the receptor construct is not described
# T2 sequence (P17948 27-758 limits assumed): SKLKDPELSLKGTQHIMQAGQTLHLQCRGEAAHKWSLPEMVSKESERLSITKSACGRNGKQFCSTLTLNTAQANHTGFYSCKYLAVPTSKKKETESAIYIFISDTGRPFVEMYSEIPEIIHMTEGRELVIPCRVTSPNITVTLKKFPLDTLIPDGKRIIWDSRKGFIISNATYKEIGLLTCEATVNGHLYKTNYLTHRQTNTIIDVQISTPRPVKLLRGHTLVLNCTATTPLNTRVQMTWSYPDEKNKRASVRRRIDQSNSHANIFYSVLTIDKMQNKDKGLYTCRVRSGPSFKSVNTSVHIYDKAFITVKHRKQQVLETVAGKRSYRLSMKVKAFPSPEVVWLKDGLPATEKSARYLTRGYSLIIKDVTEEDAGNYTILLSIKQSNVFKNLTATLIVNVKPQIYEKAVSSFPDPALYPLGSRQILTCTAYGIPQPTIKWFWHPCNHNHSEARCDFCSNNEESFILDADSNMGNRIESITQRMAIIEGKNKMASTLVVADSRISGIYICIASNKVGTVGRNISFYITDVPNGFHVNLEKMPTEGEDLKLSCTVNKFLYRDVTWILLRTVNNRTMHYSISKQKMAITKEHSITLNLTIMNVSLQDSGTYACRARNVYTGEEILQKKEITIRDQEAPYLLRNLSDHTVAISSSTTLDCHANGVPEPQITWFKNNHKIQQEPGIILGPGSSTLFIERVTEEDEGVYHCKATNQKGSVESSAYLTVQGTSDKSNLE
# [12] = target: T3, Flt-IgG (UniProt P17948 27-758, limits assumed); experiment: competition ELISA vs biotinylated native VEGF for Flt-IgG
# T3 construct: also called chimeric Flt-human Fc molecule; not shown: human IgG Fc
# T3 sequence (P17948 27-758 limits assumed): as above
# Protocol: Receptor binding assays were performed in 96-well immunoplates (Maxisorp, Nunc-Immunoplate, Nalge Nunc International, Rochester, N.Y.). Each well was coated with 100 μl of a solution containing 2 μg/ml of rabbit F(ab')2 to human IgG Fc (Jackson ImmunoResearch, West Grove, Pa.) in 50 mM carbonate buffer at pH 9.6 and incubated at 4° C. overnight. The supernatant was then discarded, the wells were washed three times in washing buffer (0.05% Tween 20 in PBS), and the plate was blocked (150 μl per well) with block buffer (0.5% BSA, 0.01% thimerosal in PBS) at room temperature for one hour. The supernatant was discarded, and the wells were washed.
# The wells were filled with 100 μl of a solution containing Flt-IgG (a chimeric Flt-human Fc molecule) at 50 ng/ml in assay buffer (0.5% BSA, 0.05% Tween 20 in PBS). The wells were incubated at room temperature for 1 hour and then washed three times in wash buffer (0.05% Tween 20 in PBS).
# as §2, with “the” for “this”, “2 hours” for “1 hour”, “3', 5,5'-tetramethyl” for “3′, 5,5′-tetramethyl”, “g/liter,” for “gram/liter;”
# [13] = target: T4, KDR (1-3) (UniProt P35968 20-327, limits assumed); experiment: competition ELISA vs biotinylated native VEGF (8-109) for KDR (1-3)
# T4 construct: domain: domains 1 to 3; Genentech reagent; also called KDR (1-3) monomer; domains 1 to 3 of KDR
# T4 sequence (P35968 20-327 limits assumed): as the sequence (P35968 20-327 limits assumed) above
# Protocol: as §1
# as §2, with “3', 5,5'-tetramethyl” for “3′, 5,5′-tetramethyl”
# as §3
molecule,measurement,setting,value
B1,fold reduced KDR-binding affinity (against native VEGF (8-109)),[1],≥ 470 fold
B2,phosphorylation of ERK1 and ERK2,[2],barely detectable phosphorylation of ERK2
same,PLC-gamma phosphorylation,[3],did not increase PLC-gamma phosphorylation over background levels
same,promotion of HUVEC cell migration,[4],unable to increase cell migration over background levels
same,induction of corneal angiogenesis,[5],unable to stimulate angiogenesis over control levels
B3,Phosphorylation-Inducing Activity (KIRA assay),[6],0.5 ratio to native VEGF (8-109)
same,"Endothelial Cell Proliferation Activity (HUVEC, 3H-thymidine)",[7],0.2 ratio to native VEGF (8-109)
same,"Relative Binding Affinity, KDR Receptor: ratio to native VEGF (8–109)",[8],1 nM/1
same,"Relative Binding Affinity, FLT-1 Receptor (RIA)",[9],"14,000"
same,relative binding affinity (ratio to native VEGF 165),[10],20 ratio
same,relative binding affinity (ratio to native VEGF 165),[11],14000 ratio
same,relative binding affinity (ratio to native VEGF (8-109)),[12],6000 ratio
same,relative binding affinity (ratio to native VEGF (8-109)),[13],1 ratio
